Test results from US20230227538A1 (University of California, published 2023).
Residue numbers refer to the chain shown, from its start. Values joined by “and” are separate entries in the source; they are usually repeats but may differ in a detail not shown here. Equal values may be shown once.

Tests used:
[1] = molecular target: Spike protein of live SARS-CoV-2 (isolate France/IDF0372/2020) (SARS-CoV-2, UniProt P0DTC2 14-1273); test: cell-based or functional assay
[2] = molecular target: T1, SARS-CoV-2 Spike ectodomain, stabilized prefusion trimer (spike ECD, Spike^S2P) (SARS-CoV-2); test: SPR on captured Spike^S2P
T1 construct: also called SC2 Spike ECD; Spike trimer

[3] = molecular target: T1, SARS-CoV-2 Spike ectodomain, stabilized …; test: SPR, fast phase of a biphasic dissociation from Spike^S2P
[4] = molecular target: T1, SARS-CoV-2 Spike ectodomain, stabilized …; test: SPR, slow phase of a biphasic dissociation from Spike^S2P
[5] = molecular target: T1, SARS-CoV-2 Spike ectodomain, stabilized …; test: SPR
[6] = molecular target: T1, SARS-CoV-2 Spike ectodomain, stabilized …; test: SPR, no measurable dissociation over ten minutes
[7] = molecular target: T1, SARS-CoV-2 Spike ectodomain, stabilized …
[8] = molecular target: T1, SARS-CoV-2 Spike ectodomain, stabilized …; remark: listed apart in the source
[9] = molecular target: T1, SARS-CoV-2 Spike ectodomain, stabilized …; test: SPR, Spike^S2P captured on a StreptactinXT chip

B1: Nb6-tri (trivalent Nb6 with two 20 amino acid linkers) (VHH)
chain: QVQLVESGGGLVQAGGSLRLSCAASGIIFGRNAMGWYRQAPGKERELVAGITRRGSITYYADSVKGRFTISRDNAKNTVYLQMNSLKPEDTAVYYCAADPASPAPGDYWGQGTQVTVSSGGGGSGGGGSGGGGSGGGGSQVQLVESGGGLVQAGGSLRLSCAASGIIFGRNAMGWYRQAPGKERELVAGITRRGSITYYADSVKGRFTISRDNAKNTVYLQMNSLKPEDTAVYYCAADPASPAPGDYWGQGTQVTVSSGGGGSGGGGSGGGGSGGGGSQVQLVESGGGLVQAGGSLRLSCAASGIIFGRNAMGWYRQAPGKERELVAGITRRGSITYYADSVKGRFTISRDNAKNTVYLQMNSLKPEDTAVYYCAADPASPAPGDYWGQGTQVTVSS
IC50, plaque assay with live SARS-CoV-2 on VeroE6 cells [1]: 0.16 nM | fold gain in KD against Nb6 [2]: > 200000 fold | koff [3]: 0.029 s⁻¹ | koff [4]: < 1e-06 s⁻¹

B2: mNb6-tri (trivalent mNb6 with a 20 amino acid linker) (VHH)
chain: B1 chain with I27Y, P105Y, I166Y, P244Y, I305Y, P383Y
Kd [5]: < 0.001 nM | dissociation half-life t½ [5]: > 192 h | IC50, live SARS-CoV-2 infection assay [1]: 54 pM and 2.3 ng/mL | koff [6]: < 1e-06 s⁻¹

B3: Nb6 (AeroNab6, NbCOV6, clone pNbCOV006A) (VHH)
VHH: QVQLVESGGGLVQAGGSLRLSCAASGIIFGRNAMGWYRQAPGKERELVAGITRRGSITYYADSVKGRFTISRDNAKNTVYLQMNSLKPEDTAVYYCAADPASPAPGDYWGQGTQVTVSS
notes: also called AeroNab6 MASC monomer; Parent clone (NbCOV6)
IC50 [7]: 370 nM | EC50 [8]: 359 nM | koff [2]: 0.056 s⁻¹ | Kd [9]: 210 nM

B4: mNb6 (matured Nb6, mNbCOV6, AeroNab6m) (VHH)
VHH: B3 VHH with I27Y, P105Y
EC50 [8]: 0.056 nM

B5: Nb6-bi (bivalent Nb6 with a 15 amino acid linker) (VHH)
chain: QVQLVESGGGLVQAGGSLRLSCAASGIIFGRNAMGWYRQAPGKERELVAGITRRGSITYYADSVKGRFTISRDNAKNTVYLQMNSLKPEDTAVYYCAADPASPAPGDYWGQGTQVTVSSGGGGSGGGGSGGGGSQVQLVESGGGLVQAGGSLRLSCAASGIIFGRNAMGWYRQAPGKERELVAGITRRGSITYYADSVKGRFTISRDNAKNTVYLQMNSLKPEDTAVYYCAADPASPAPGDYWGQGTQVTVSS
fold gain in KD against Nb6 [2]: 750 fold | koff [3]: 0.027 s⁻¹ | koff [4]: 0.00031 s⁻¹
